Test results published in the DeepSol protein solubility set.

assay: soluble on expression in E. coli; label from the status in PepcDB or PDB records

Sequence | soluble on expression in E. coli
AQRDVLAVLPQLNAVQNLAGDAPSWAEGYGLYQGDMLGEESASVYRKLLIAVFAPRLVTRIEEQLRSGGSSDFLYEGLKAYLMLGSPDHYDADFIKAWISLDWERNLPRDLSPEQRQALHAHLDALLERRPPSARLDQDLVEDLRRQLQQLPVAQRVYDRVKRQRLPKDVPDFRISDAAGRDAPLVFARKSGKPLTDPLSGFFTYRGYREVFLTASLSQAGTIAEEQWVLGRDLNDAGDAANLALDVRRLYFQDYLRQWDDLLADLTVVPITNVTQAADVLRILSGPTSPFRKLLEAVARETDLQKGDRLVAAQVKKAADGTVDKLKQRLGSLVGQEEEG | not soluble
AQSRTLLAGIVQQQQQLLDVVKRQQELLRLTVWGTKNLQTRVTAIEKYLKDQAQLNAWGAAFRQVAHTTVPWPNASLTPKWNNETWQEWERKVDFLEENITALLEEAQIQQEKNMYELQKLNS | soluble
ASSKNLSETLFQNHKQAKETSSLTQYMPSSLELLDTRREQSSQAWYRNLRRLQWIWQGVDPVEQEEILARIASSKHSRTHDEWLDTVMGYRSGNWTYEWTRVGMLHQKQAAERQGEEAADQMFAAALYYSIAGYPHLRNDNLALQAQVLANNAYQEAAKLTGFVVKRLEFSYQNKKIAGYLHLRNTDSPKPVVLVSAGLDSLQTDMWRLFRDYLAKRDIAMLTIDMPSLGASSHWPLTEDSSCLHQAVLNQLADLPWVDHFRIGLIGFRFGGNAMARLAFLESDKVKACVSLGAPIHDIFTSPNKLAAMPKMYLDVLASRLGKNVVDVRSLSGQLMAWSLKVQGFMSGRRTKTPILALGLEGDPVSPYSDNQLVALFSQGGQAKKVKSKTISQGYEQSLDLAINWLEDELC | not soluble
ATFSKLLYRHRQFYTQFPWVEDKIREVCHHLDVSEELLPTGERLSSRRLRTIGIDLGRSSGFYSLAYLFEDPFVNIHGEKRLRPDFLVDVGQRVSFAGAPLYAAIHESIYGGIGGTTTNWSAHRIREEFPGCEENADPRSAEPFYLTGEHIFPWQFDEDPALQPYKAAAEQLATTQWEHSPYDAEVLKEQAAVTAACVYLDDAFVPFELSMDTAHTYRDLRLHVTNRFQHDGIRWDGAGILSTLRDKVLDH | not soluble
ATKQAIEKDPWLSPEQKKAQKEKAKARLDEGLKALKAADSLEILKVTEEAFVDKEKNPDSIPNQHKAGTADQARKQALDSL | not soluble
AVPIAQKSEPHSLSSEALMRRAVSLVTDSTSTFLSQTTYALIEAITEYTKAVYTLTSLYRQYTSLLGKMNSEEEDEVWQVIIGARAEMTSKHQEYLKLETTWMTAVGLSEMAAEAAYQTGADQASITARNHIQLVKLQVEEVHQLSRKAETKLAEAQIEELKQKTQEEGEERAESEQEAYLRED | soluble
AVPTVVGIPDGTAVVGRSFRVSIPTDLIASSGEIIKVSAAGKEALPSWLHWDPHSHILEGLPLDTDKGVHYISVSAARLGANGSHVPQTSSVFSIEVYPEDHNEPQSVRAASSDPGEVVPSACAADEPVTVLTVILDADLTKMTPKQRIDLLNRMQSFSEVELHNMKLVPVVNNRLFDMSAFMAGPGNAKKVVENGALLSWKLGCSLNQNSVPDIRGVETPAREGAMSAQLGYPVVGWHIANKKPT | soluble
AWPEGQALGPGMPLPEPSEQEGESVKAGQEPSPKPGTDVIPAAPRKPREFSKLVLLTASDQDEDGVGSKPQEVHCVLSLEMAGPATLASTLQILPVEEQGGVVQPALEMPEQKCSKLDAAPQSLEFLRTPFGGRLLVLESFLYKQEKAVGDKVYWKCRQHAELGCRGRAITRGLRATVMRGHCHAPDEQGLEARRQREKLPSLALPEGLGEPQGPEGPGGRVEEPLEGVGPWQCPEEPEPTPGLVLSKPALEEEEAPRALSLLSLPPKKRSILGLGQARPLEFLRTCYGGSFLVHESFLYKREKAVGDKVYWTCRDHALHGCRSRAITQGQRVTVMRGHCHQPDMEGLEARRQQEKAVETLQAGQDGPGSQVDTLLRGVDSLLYRRGPGPLTLTRPRPRKRAKVEDQELPTQPEAPDEHQDMDADPGGPEFLKTPLGGSFLVYESFLYRREKAAGEKVYWTCRDQARMGCRSRAITQGRRVTVMRGHCHPPDLGGLEALRQREKRPNTAQRGSPGGPEFLKTPLGGSFLVYESFLYRREKAAGEKVYWTCRDQARMGCRSRAITQGRRVMVMRRHCHPPDLGGLEALRQREHFPNLAQWDSPDPLRPLEFLRTSLGGRFLVHESFLYRKEKAAGEKVYWMCRDQARLGCRSRAITQGHRIMVMRSHCHQPDLAGLEALRQRERLPTTAQQEDPEKIQVQLCFKTCSPESQQIYGDIKDVRLDGESQ | soluble
AYESIQVTSAQKHVLHVQLNRPEKRNAMNRAFWRELVECFQKISKDSDCRAVVVSGAGKMFTSGIDLMDMASDILQPPGDDVARIAWYLRDLISRYQKTFTVIEKCPKPVIAAIHGGCIGGGVDLISACDIRYCTQDAFFQVKEVDVGLAADVGTLQRLPKVIGNRSLVNELTFTARKMMADEALDSGLVSRVFPDKDVMLNAAFALAADISSKSPVAVQGSKINLIYSRDHSVDESLDYMATWNMSMLQTQDIIKSVQAAMEKKDSKSITFSKL | soluble
CPRLIRFVMEEDYANLPPLRRFLRRAGVIPISASNRSSIRRAFNDVEEALNEGHIVCIFPEGRLTSDGEMNDFMRGIDIILRRSPVPVIPMALKGLWGSYFSRAKGRACRGFPTRFWSKLEIEAGEPVDPSSATAQTMFEKVHALRGDWR | not soluble
CVIFPVEIDVSQTIIRDCQVDKQTRELVYINKIMNTQLTKPVLMMFNISGPIRSVTRKNNNLRDRIKSKVDEQFDQLERDYSDQMDGFHDSIKYFKDEHYSVSCQNGSVLKSKFAKILKSHDYTDKKSIEAYEKYCLPKLVDERNDYYVAVCVLKPGFENGSNQVLSFEYNPIGNKVIVPFAHEINDTGLYEYDVVAYVDSVQFDGEQFEEFVQSLILPSSFKNSEKVLYYNEASKNKSMIYKALEFTTESSWGKSEKYNWKIFCNGFIYDKKSKVLYVKLHNVTSALNKNVILNTIKA | soluble
DAGGGVGKELVDLKIIWNKTKHDVKVPLDSTGSELKQKIHSITGLPPAMQKVMYKGLVPEDKTLREIKVTSGAKIMVVGSTI | soluble
DDIDYANAEYYLGNTYDLVILDTVDNFQPINIGRLVDLARGGGLIIIYTNNLIKDKTFRTSIMRNGLILDEYEKRFKRKLYEHEGIFIIDVNEYIPKPFSGNTM | not soluble
DDNERLSKVEKARQLREQVNDLFSRKFGEAIGMGFPVKVPYRKITINPGCVVVDGMPPGVSFKAPSYLEISSMRRILDSAEFIKFTVIRPFPGLVINNQLV | soluble
DEGPLMMNAFEMITLSQGLNLSALFDRRQDFVKRQTRFVSRREPSEIIANIEAVANSMGFKSHTRNFKTRLEGLSSIKAGQLAVVIEIYEVAPSLFMVDVRKAAGETLEYHKFYKKLCSKLENIIWRATEGIPKSEILRTITF | soluble
DERVFEQELENGLRLFIIPKPGFQKTFVTYTTQFGSLDNQFKPLGQDQFVTVPDGVAHFLEHKLFEKEEEDLFTAFAEDNAQANAFTSFDRTSYLFSATDNIENNIKRLLTMVETPYFTKETVDKEKGIIAEEIKMYQEQPGYKLMFNTLRAMYQRHPIRVDIAGSVESIYDITKDDLYLCYETFYHPSNMVLFVVGDVNPEEICRIVKQHEDARNKVNQPKIER | not soluble
DGDYIKDAVKEINYFMRDWRVDQVKSMDLRTVDIMAAAHNLMDVNEPYMLLSGYRSPQTNAMLRSRSRGVARNSLHMQGQAADLRLASRSVSQMANAAIACRAGGVGKYYRSNFVHMDCGEVRSWGG | not soluble
DGSFQGSVFVAVDIGERKRTEQALRENEQHLKNILDSIHAGILVIDPQDHRIVDANTFALDMIGAPKGLVVDRICHNFVCSAVQGACPITDLLENMDNSERRLLRFDGTSIPILKSVVPVTYQGRKLLIESFID | not soluble
DHIPGTDIDLTVPYAAEGPGPTVNTLGDVDGKPVVNVSGAEIHKTTGNLNMTTVSVRTHLTLGQALGRWLIAHDTLVPIEQIFPQGKTPEEVDEVNKAAFSTSEASATIAAMNQLHKPVDT | not soluble
DIQMTQSPSSLSASVGDRVTITCRASQDIPRSISGYVAWYQQKPGKAPKLLIYWGSYLYSGVPSRFSGSGSGTDFTLTISSLQPEDFATYYCQQHYTTPPTFGQGTKVEIKRTVAAPSVFIFPPSDEQLKSGTASVVCLLNNFYPREAKVQWKVDNALQSGNSQESVTEQDSKDSTYSLSSTLTLSKADYEKHKVYACEVTHQGLSSPVTKSFNRGEC | soluble
